Experimental data as given in the RNAGym collection of RNA variant scans (doi:10.7554/elife.80360).

B1: Hairpin Ribozyme (parent)
chain: GUCCUCUUUCACGUGCGCGUGAAAGAGAGAAGUGAACCAGAGAAACACACGUUGUGGUAUAUUACCUGGUA

Variants of: B1
Assay: self-cleavage, relative activity (ratio to wild type); higher = more cleavage; co-transcriptional
With GUCCUAUUUCACGUGCUCGUGAAAGAGAGAAGUGAACCAGAGAAACACACGUUGUGGUAUAUUACCUGGUA [C6A G17U] the self-cleavage was 0.553. Work on GUCCUGUUUCACGUGCGCGUGAAAGAGAGAAGUGAACCAGAGAACCACACGUUGUGGUAUAUUACCUGGUA [C6G A45C] yielded a self-cleavage of 0.163. GUCCUAUUUCACGUGCGCGUGAAAGAGAGAAGUGAACCAGAGAAACACACGUGGUGGUAUAUUACCUGGUA [C6A U53G] gave a self-cleavage of 0.422. Work on GUCCUAUUUCACGUGCGCGUGAAAGAGAGAAGUGAACCAGAGAAACACACGUUGUGGUAUAUUACCCGGUA [C6A U67C] yielded a self-cleavage of 0.15. In the case of GUCCUAUUUCACGUACGCGUGAAAGAGAGAAGUGAACCAGAGAAACACACGUUGUGGUAUAUUACCUGGUA [C6A G15A], the self-cleavage is reported as 0.54. With GUCCUGUUUUACGUGCGCGUGAAAGAGAGAAGUGAACCAGAGAAACACACGUUGUGGUAUAUUACCUGGUA [C6G C10U] the self-cleavage was 0.305. With GUCCUGUUUCACGUGCGCGUGACAGAGAGAAGUGAACCAGAGAAACACACGUUGUGGUAUAUUACCUGGUA [C6G A23C] the self-cleavage was 0.122. GUCCUGUUUCACGUGCGCGUGAAAGAGAGAAGUGAACCAGAGCAACACACGUUGUGGUAUAUUACCUGGUA [C6G A43C] showed a self-cleavage of 0.11. With GUCCUAUUUCACGUGCGCGUGAAAGAGAGAAGUGAACCAGAGAAACACACGUUGUGGUAUAUUGCCUGGUA [C6A A64G] the self-cleavage was 0.444. With GUCCUAUUUCACGUGCGCGUGAAAGAGAGAAGUGAACCAGAGAAACACACGUUGUGGUAUAUUACCUGUUA [C6A G69U] the self-cleavage was 0.121. For GUCCUAUUUCACGUGCGCGUGAAAGAGAGAAGUGAACCAGAGAAACACACGUUGUGGUAUAUUACCUGCUA [C6A G69C], the self-cleavage was 0.236. In the case of GUCCUAUUUCACGUGCGCGUGAAAGAGAGAAGUGAACCAGAGAAACACAUGUUGUGGUAUAUUACCUGGUA [C6A C50U], the self-cleavage is reported as 0.239. In the case of GUCCUAUUUCACGUGCGCAUGAAAGAGAGAAGUGAACCAGAGAAACACACGUUGUGGUAUAUUACCUGGUA [C6A G19A], the self-cleavage is reported as 0.599. In the case of GUCCUAUUUCACGAGCGCGUGAAAGAGAGAAGUGAACCAGAGAAACACACGUUGUGGUAUAUUACCUGGUA [C6A U14A], the self-cleavage is reported as 0.612. Work on GUCCUAUUUCACGUGCGCGUGAAAGAGAGAAGUGAACCAGAGAAAGACACGUUGUGGUAUAUUACCUGGUA [C6A C46G] yielded a self-cleavage of 0.189. With GUCCUGUUUCACGUGCGCGUGAAAGAGAGAAGUGAACCAGAGAAACACUCGUUGUGGUAUAUUACCUGGUA [C6G A49U] the self-cleavage was 0.107. With GUCCUGUUUCACGUGCGCGUGAAAGAGAGAAGUGAACCAGAGAAACACGCGUUGUGGUAUAUUACCUGGUA [C6G A49G] the self-cleavage was 0.286. With GUCCUAUUUCACGUGCGCGUGAAAGAGAGAAGUGAACCAGAGAAACACACGUUGUGGUAUACUACCUGGUA [C6A U62C] the self-cleavage was 0.157. In the case of GUCCUGUUUCACGUGCGCGUGAAAGAGAGAAGUGAUCCAGAGAAACACACGUUGUGGUAUAUUACCUGGUA [C6G A36U], the self-cleavage is reported as 0.215. Work on GUCCUAUUUCACGUGCGCGUGAAAGAGAGAAGUCAACCAGAGAAACACACGUUGUGGUAUAUUACCUGGUA [C6A G34C] yielded a self-cleavage of 1.08. GUCCUGUUUCACGUGCGCGUGAAAGAGAGAAGUGAACCGGAGAAACACACGUUGUGGUAUAUUACCUGGUA [C6G A39G] showed a self-cleavage of 0.197. With GUCCUGUUUCACGUGCGAGUGAAAGAGAGAAGUGAACCAGAGAAACACACGUUGUGGUAUAUUACCUGGUA [C6G C18A] the self-cleavage was 0.645. For GUCCUGUUUCACGUGCGGGUGAAAGAGAGAAGUGAACCAGAGAAACACACGUUGUGGUAUAUUACCUGGUA [C6G C18G], the self-cleavage was 0.395. Work on GUCCUGUUUCACGUGCGUGUGAAAGAGAGAAGUGAACCAGAGAAACACACGUUGUGGUAUAUUACCUGGUA [C6G C18U] yielded a self-cleavage of 0.613. For GUCCUGUUUCACGUGCGCGUGAAAGAGAGAAGUGAACCAGAGAAACAUACGUUGUGGUAUAUUACCUGGUA [C6G C48U], the self-cleavage was 0.0659. With GUCCUAUGUCACGUGCGCGUGAAAGAGAGAAGUGAACCAGAGAAACACACGUUGUGGUAUAUUACCUGGUA [C6A U8G] the self-cleavage was 0.447. With GUCCUAUUUCACGUGCGCGUGAAAGAGAGAAGUGAACCAGAGAAACACACGUUGUGGUAUGUUACCUGGUA [C6A A61G] the self-cleavage was 0.137. GUCCUAUUUCACGUGCGCGUGAAAGAGAGAAGUGAACCAGAGAAACACACGUUGUGGUAUUUUACCUGGUA [C6A A61U] gave a self-cleavage of 0.182. Variant GUCCUAUUUCACGUGCGCGUGAAAGAGAGAAGUGAACCAGACAAACACACGUUGUGGUAUAUUACCUGGUA [C6A G42C] has a self-cleavage of 0.239. For GUCCUAUUUCACGUGCGCGUGAAAGAGAGAAGUGAAUCAGAGAAACACACGUUGUGGUAUAUUACCUGGUA [C6A C37U], the self-cleavage was 0.505. GUCCUAUUUCACGUGCGCGUGAAAGAGAGAAGUGAAACAGAGAAACACACGUUGUGGUAUAUUACCUGGUA [C6A C37A] showed a self-cleavage of 0.236. GUCCUGUUUCACGUGCGCGUGAAAGAGAGAAGUGAAGCAGAGAAACACACGUUGUGGUAUAUUACCUGGUA [C6G C37G] showed a self-cleavage of 0.142. For GUCCUGUUUCACGUGCGCGUGAAAGAGAGAAGUGAAACAGAGAAACACACGUUGUGGUAUAUUACCUGGUA [C6G C37A], the self-cleavage was 0.158. With GUCCUAUUUAACGUGCGCGUGAAAGAGAGAAGUGAACCAGAGAAACACACGUUGUGGUAUAUUACCUGGUA [C6A C10A] the self-cleavage was 0.404. For GUCCUAUUUCACGUGCGCGUGAAAGAGAGAAGUGAACCAGAGAAACACACGUUGUCGUAUAUUACCUGGUA [C6A G56C], the self-cleavage was 0.128. Variant GUCCUAUUGCACGUGCGCGUGAAAGAGAGAAGUGAACCAGAGAAACACACGUUGUGGUAUAUUACCUGGUA [C6A U9G] has a self-cleavage of 0.419. GUCCUGUUUCACGUGCGCGUGAAAGAGAGAAGUGAACCAGAGAAACACACGUUGUGGUAUCUUACCUGGUA [C6G A61C] showed a self-cleavage of 0.0806. Work on GUCCUGUUUCACGUGCGCGUGAAAGAGAGAAGUGAACCAGAGAAACACAAGUUGUGGUAUAUUACCUGGUA [C6G C50A] yielded a self-cleavage of 0.14.
